Data from patent publication US20050186659A1 (published 2005).

Target: the molecule itself
Experiment: analytical ultracentrifugation (sedimentation velocity) in buffer with 0.4-0.6 M GuHCl; self-association of the enzyme
Protocol: Analytical ultracentrifugation. Velocity sedimentation experiments were performed using an XL-A analytical ultracentrifuge (Beckman Instruments, Palo Alto, Calif.) with an An60-Ti rotor. 11β-HSD1 in 50 mM Tris-HCl, pH 8.0: 1 mM TCEP and increasing concentrations of GuHCl (0-2.0 M) was centrifuged at 40,000 rpm. Solutions containing the same components except the protein were used as references. Scans were collected every 5 min at 280 nm absorption wavelength and the radial distance of the sedimenting boundary r was determined. The sedimentation coefficient was calculated by the gradient of the plot of ln(r) vs ω²t, where ω was the angular velocity and t was the time.
The association state of 11β-HSD1 was investigated by analytical ultracentrifugation. […] When incubated in buffer containing 0.4 M GuHCl, the guinea pig enzyme appeared to be constituted by two major populations (FIG. 5B). This behavior was even more pronounced at 0.6 M GuHCl (FIG. 5C). A molecular weight of approximately 60 kDa can be derived from the sedimentation coefficient of the larger peak, corresponding to a dimeric 11β-HSD1 population, while the second peak may originate from a smaller portion of tetrameric enzyme.

B1: recombinant guinea pig 11β-hydroxysteroid dehydrogenase type 1 (11β-HSD1), catalytic domain with His6 tag (enzyme)
chain: MGSSHHHHHHSSGLVPRGSHMNEKFRPEMLQGKKVIVTGASKGIGREIAYHLAKMGAHVVVTARSKEALQKVVARCLELGAASAHYIAGSMEDMTFAEEFVAEAGNLMGGLDMLILNHVLYNRLTFFHGEIDNVRKSMEVNFHSFVVLSVAAMPMLMQSQGSIAVVSSVAGKITYPLIAPYSASKFALDGFFSTLRSEFLVNKVNVSITLCILGLIDTETAIKATSGIYLGPASPKEECALEIIKGTALRQDEMYYVGSRWVPYLLGNPGRKIMEFLSAAEYNWDNVLSNEKLYGRWA
notes: also called guinea pig 11β-HSD1; guinea pig enzyme
- binding result: binds
